# Results: US20210246166A1 (Bayer, published 2021)
# Bridge positions count the residues as written; N and C are the ends. Square brackets hold non-standard residues; d marks the D form. Primed or numbered codes have the meaning given here. Ends that are not written are not given here. * marks the point of attachment. Tranexamic″ = tranexamic acid, NC[C@H]1CC[C@@H](C(=O)*)CC1; Pro(trans-4-F) = O=C(O)[C@@H]1C[C@@H](F)CN1; Oic = O=C(O)[C@@H]1C[C@@H]2CCCC[C@@H]2N1; Cyclopropylacetic acid = O=C(CC1CC1)*; Cyclobutylacetic = O=C(CC1CCC1)*; NMeI = CC[C@H](C)[C@H](NC)C(=O)O; aIle = CC[C@@H](C)[C@H](N)C(=O)O; tBuAla = CC(C)(C)C[C@H](N)C(=O)O; aThr = C[C@H](O)[C@H](N)C(=O)O; Chg = N[C@H](C(=O)O)C1CCCCC1; Pen = CC(C)(S)[C@H](N)C(=O)O; NMeC = CN[C@@H](CS)C(=O)O; Aib = CC(C)(N)C(=O)O; Sar = CNCC(=O)O
# T1: Recombinant human MASP1 enzyme (fragment corresponding to amino acids 297-699, C-terminal His Tag) (human, UniProt P48740 297-699)
# T1 sequence: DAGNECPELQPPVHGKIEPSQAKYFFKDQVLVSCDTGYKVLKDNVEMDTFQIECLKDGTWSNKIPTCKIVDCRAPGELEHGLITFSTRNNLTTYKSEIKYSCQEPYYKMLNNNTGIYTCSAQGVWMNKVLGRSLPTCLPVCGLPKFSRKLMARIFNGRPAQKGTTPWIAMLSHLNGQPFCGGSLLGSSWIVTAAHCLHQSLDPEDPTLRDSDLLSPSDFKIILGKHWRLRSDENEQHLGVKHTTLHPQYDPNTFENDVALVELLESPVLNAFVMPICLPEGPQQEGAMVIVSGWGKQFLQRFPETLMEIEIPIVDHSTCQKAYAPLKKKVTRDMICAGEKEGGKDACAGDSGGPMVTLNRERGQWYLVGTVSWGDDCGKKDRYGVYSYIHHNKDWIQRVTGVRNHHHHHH
# B1: AIC+SRSLP-(Oic)-(Chg)-C+IPD-NH2 (peptide)
# peptide: AICSRSLP[Oic][Chg]CIPD-NH2
# modifications: disulfide 3-11; N-terminus assumed
# SMILES: CC[C@H](C)[C@H](NC(=O)[C@H](C)N)C(=O)N[C@H]1CSSC[C@@H](C(=O)N[C@H](C(=O)N2CCC[C@H]2C(=O)N[C@@H](CC(=O)O)C(N)=O)[C@@H](C)CC)NC(=O)[C@H](C2CCCCC2)NC(=O)[C@@H]2C[C@@H]3CCCC[C@@H]3N2C(=O)[C@@H]2CCCN2C(=O)[C@H](CC(C)C)NC(=O)[C@H](CO)NC(=O)[C@H](CCCNC(=N)N)NC(=O)[C@H](CO)NC1=O
# B2: GIC+SRSLPPIC+I-(Aib)-D-OH (peptide)
# peptide: GICSRSLPPICI[Aib]D-OH
# modifications: disulfide 3-11; N-terminus assumed
# SMILES: CC[C@H](C)[C@H](NC(=O)CN)C(=O)N[C@H]1CSSC[C@@H](C(=O)N[C@H](C(=O)NC(C)(C)C(=O)N[C@@H](CC(=O)O)C(=O)O)[C@@H](C)CC)NC(=O)[C@H]([C@@H](C)CC)NC(=O)[C@@H]2CCCN2C(=O)[C@@H]2CCCN2C(=O)[C@H](CC(C)C)NC(=O)[C@H](CO)NC(=O)[C@H](CCCNC(=N)N)NC(=O)[C@H](CO)NC1=O
# B3: (Cyclobutylacetic)-IC+SRS-((tBu)A)-PPI-(Pen)+IP-NH2 (peptide)
# peptide: Cyclobutylacetic-ICSRS[tBuAla]PPI[Pen]IP-NH2
# modifications: disulfide 2-10
# SMILES: CC[C@H](C)[C@H](NC(=O)CC1CCC1)C(=O)N[C@H]1CSSC(C)(C)[C@@H](C(=O)N[C@H](C(=O)N2CCC[C@H]2C(N)=O)[C@@H](C)CC)NC(=O)[C@H]([C@@H](C)CC)NC(=O)[C@@H]2CCCN2C(=O)[C@@H]2CCCN2C(=O)[C@H](CC(C)(C)C)NC(=O)[C@H](CO)NC(=O)[C@H](CCCNC(=N)N)NC(=O)[C@H](CO)NC1=O
# B4: AIC+SR-(allo-T)-LPPIC+IPD-NH2 (peptide)
# peptide: AICSR[aThr]LPPICIPD-NH2
# modifications: disulfide 3-11; N-terminus assumed
# SMILES: CC[C@H](C)[C@H](NC(=O)[C@H](C)N)C(=O)N[C@H]1CSSC[C@@H](C(=O)N[C@H](C(=O)N2CCC[C@H]2C(=O)N[C@@H](CC(=O)O)C(N)=O)[C@@H](C)CC)NC(=O)[C@H]([C@@H](C)CC)NC(=O)[C@@H]2CCCN2C(=O)[C@@H]2CCCN2C(=O)[C@H](CC(C)C)NC(=O)[C@H]([C@H](C)O)NC(=O)[C@H](CCCNC(=N)N)NC(=O)[C@H](CO)NC1=O
# B5: (Tranexamic)-IC+SRS-((tBu)A)-PPI-((N-Me)C)+I-NH2 (peptide)
# peptide: {Tranexamic″}-ICSRS[tBuAla]PPI[NMeC]I-NH2
# modifications: disulfide 2-10
# SMILES: CC[C@H](C)[C@H](NC(=O)[C@@H]1CSSC[C@H](NC(=O)[C@@H](NC(=O)[C@H]2CC[C@@H](CN)CC2)[C@@H](C)CC)C(=O)N[C@@H](CO)C(=O)N[C@@H](CCCNC(=N)N)C(=O)N[C@@H](CO)C(=O)N[C@@H](CC(C)(C)C)C(=O)N2CCC[C@H]2C(=O)N2CCC[C@H]2C(=O)N[C@@H]([C@@H](C)CC)C(=O)N1C)C(N)=O
# B6: (Tranexamic)-IC+SRS-((tBu)A)-PPI-(Pen)+IP-NH2 (peptide)
# peptide: {Tranexamic″}-ICSRS[tBuAla]PPI[Pen]IP-NH2
# modifications: disulfide 2-10
# SMILES: CC[C@H](C)[C@@H]1NC(=O)[C@@H]2CCCN2C(=O)[C@@H]2CCCN2C(=O)[C@H](CC(C)(C)C)NC(=O)[C@H](CO)NC(=O)[C@H](CCCNC(=N)N)NC(=O)[C@H](CO)NC(=O)[C@@H](NC(=O)[C@@H](NC(=O)[C@H]2CC[C@@H](CN)CC2)[C@@H](C)CC)CSSC(C)(C)[C@@H](C(=O)N[C@H](C(=O)N2CCC[C@H]2C(N)=O)[C@@H](C)CC)NC1=O
# B7: ((N-Me)G)-IC+SRSLPP-(Chg)-C+IPD-NH2 (peptide)
# peptide: [Sar]ICSRSLPP[Chg]CIPD-NH2
# modifications: disulfide 3-11; N-terminus assumed
# SMILES: CC[C@H](C)[C@H](NC(=O)CNC)C(=O)N[C@H]1CSSC[C@@H](C(=O)N[C@H](C(=O)N2CCC[C@H]2C(=O)N[C@@H](CC(=O)O)C(N)=O)[C@@H](C)CC)NC(=O)[C@H](C2CCCCC2)NC(=O)[C@@H]2CCCN2C(=O)[C@@H]2CCCN2C(=O)[C@H](CC(C)C)NC(=O)[C@H](CO)NC(=O)[C@H](CCCNC(=N)N)NC(=O)[C@H](CO)NC1=O
# B8: ((N-Me)G)-IC+SRSLPPIC+IPD-OH (peptide)
# peptide: [Sar]ICSRSLPPICIPD-OH
# modifications: disulfide 3-11; N-terminus assumed
# SMILES: CC[C@H](C)[C@H](NC(=O)CNC)C(=O)N[C@H]1CSSC[C@@H](C(=O)N[C@H](C(=O)N2CCC[C@H]2C(=O)N[C@@H](CC(=O)O)C(=O)O)[C@@H](C)CC)NC(=O)[C@H]([C@@H](C)CC)NC(=O)[C@@H]2CCCN2C(=O)[C@@H]2CCCN2C(=O)[C@H](CC(C)C)NC(=O)[C@H](CO)NC(=O)[C@H](CCCNC(=N)N)NC(=O)[C@H](CO)NC1=O
# B9: G-((N-Me)I)-C+SRSLPPIC+IPD-OH (peptide)
# peptide: G[NMeI]CSRSLPPICIPD-OH
# modifications: disulfide 3-11; N-terminus assumed
# SMILES: CC[C@H](C)[C@@H]1NC(=O)[C@@H]2CCCN2C(=O)[C@@H]2CCCN2C(=O)[C@H](CC(C)C)NC(=O)[C@H](CO)NC(=O)[C@H](CCCNC(=N)N)NC(=O)[C@H](CO)NC(=O)[C@@H](NC(=O)[C@H]([C@@H](C)CC)N(C)C(=O)CN)CSSC[C@@H](C(=O)N[C@H](C(=O)N2CCC[C@H]2C(=O)N[C@@H](CC(=O)O)C(=O)O)[C@@H](C)CC)NC1=O
# B10: G-((N-Me)I)-C+SRSLPPIC+IPd-OH (peptide)
# peptide: G[NMeI]CSRSLPPICIP[dD]-OH
# modifications: disulfide 3-11; N-terminus assumed
# SMILES: CC[C@H](C)[C@@H]1NC(=O)[C@@H]2CCCN2C(=O)[C@@H]2CCCN2C(=O)[C@H](CC(C)C)NC(=O)[C@H](CO)NC(=O)[C@H](CCCNC(=N)N)NC(=O)[C@H](CO)NC(=O)[C@@H](NC(=O)[C@H]([C@@H](C)CC)N(C)C(=O)CN)CSSC[C@@H](C(=O)N[C@H](C(=O)N2CCC[C@H]2C(=O)N[C@H](CC(=O)O)C(=O)O)[C@@H](C)CC)NC1=O
# B11: ((N-Me)G)-IC+SRSLPPIC+I-((trans-4-Fluoro)P)-D-OH (peptide)
# peptide: [Sar]ICSRSLPPICI[Pro(trans-4-F)]D-OH
# modifications: disulfide 3-11; N-terminus assumed
# SMILES: CC[C@H](C)[C@H](NC(=O)CNC)C(=O)N[C@H]1CSSC[C@@H](C(=O)N[C@H](C(=O)N2C[C@H](F)C[C@H]2C(=O)N[C@@H](CC(=O)O)C(=O)O)[C@@H](C)CC)NC(=O)[C@H]([C@@H](C)CC)NC(=O)[C@@H]2CCCN2C(=O)[C@@H]2CCCN2C(=O)[C@H](CC(C)C)NC(=O)[C@H](CO)NC(=O)[C@H](CCCNC(=N)N)NC(=O)[C@H](CO)NC1=O
# B12: ((N-Me)G)-IC+SRSLPPIC+(allo-I)-PD-NH2 (peptide)
# peptide: [Sar]ICSRSLPPIC[aIle]PD-NH2
# modifications: disulfide 3-11; N-terminus assumed
# SMILES: CC[C@@H](C)[C@H](NC(=O)[C@@H]1CSSC[C@H](NC(=O)[C@@H](NC(=O)CNC)[C@@H](C)CC)C(=O)N[C@@H](CO)C(=O)N[C@@H](CCCNC(=N)N)C(=O)N[C@@H](CO)C(=O)N[C@@H](CC(C)C)C(=O)N2CCC[C@H]2C(=O)N2CCC[C@H]2C(=O)N[C@@H]([C@@H](C)CC)C(=O)N1)C(=O)N1CCC[C@H]1C(=O)N[C@@H](CC(=O)O)C(N)=O
# B13: Ac-IC+SRS-((tBu)A)-PPI-((N-Me)C)+I-NH2 (peptide)
# peptide: Ac-ICSRS[tBuAla]PPI[NMeC]I-NH2
# modifications: disulfide 2-10
# SMILES: CC[C@H](C)[C@H](NC(=O)[C@@H]1CSSC[C@H](NC(=O)[C@@H](NC(C)=O)[C@@H](C)CC)C(=O)N[C@@H](CO)C(=O)N[C@@H](CCCNC(=N)N)C(=O)N[C@@H](CO)C(=O)N[C@@H](CC(C)(C)C)C(=O)N2CCC[C@H]2C(=O)N2CCC[C@H]2C(=O)N[C@@H]([C@@H](C)CC)C(=O)N1C)C(N)=O
# B14: (Cyclopropylacetic acid)-IC+SRS-((tBu)A)-PPI-((N-Me)C)+I-NH2 (peptide)
# peptide: {Cyclopropylacetic acid}-ICSRS[tBuAla]PPI[NMeC]I-NH2
# modifications: disulfide 2-10
# SMILES: CC[C@H](C)[C@H](NC(=O)[C@@H]1CSSC[C@H](NC(=O)[C@@H](NC(=O)CC2CC2)[C@@H](C)CC)C(=O)N[C@@H](CO)C(=O)N[C@@H](CCCNC(=N)N)C(=O)N[C@@H](CO)C(=O)N[C@@H](CC(C)(C)C)C(=O)N2CCC[C@H]2C(=O)N2CCC[C@H]2C(=O)N[C@@H]([C@@H](C)CC)C(=O)N1C)C(N)=O
# Target: Recombinant human MASP2 enzyme (fragment corresponding to amino acids 297-686, C-terminal His Tag) (human, UniProt O00187 297-686)
# Experiment: cell-based or functional assay
# Recombinant human MASP2 enzyme (fragment corresponding to amino acids 297-686, C-terminal His Tag), sequence (O00187 other isoform, or with tags, fused parts or gaps limits assumed): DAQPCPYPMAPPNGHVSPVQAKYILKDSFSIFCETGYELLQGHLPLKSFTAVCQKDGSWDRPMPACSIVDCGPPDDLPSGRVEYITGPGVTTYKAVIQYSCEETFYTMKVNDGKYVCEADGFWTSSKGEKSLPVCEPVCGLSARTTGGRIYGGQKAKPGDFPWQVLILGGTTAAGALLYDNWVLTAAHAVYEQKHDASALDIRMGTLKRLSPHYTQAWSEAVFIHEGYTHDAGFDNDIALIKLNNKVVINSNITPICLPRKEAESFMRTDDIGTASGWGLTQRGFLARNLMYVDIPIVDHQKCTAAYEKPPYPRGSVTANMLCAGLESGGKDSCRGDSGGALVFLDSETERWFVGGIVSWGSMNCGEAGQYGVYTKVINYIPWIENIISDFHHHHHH
row,human MASP2 IC50,Binder
1,290 nM,B1
2,160 nM,B2
3,9.3 nM,B3
4,330 nM,B4
5,26 nM,B5
6,17 nM,B6
7,891 nM,B7
8,1100 nM,AICSRS[3‑(Trimethylsilyl)‑L‑alanine]P[Oic]I[NMeC]IPD-NH2 (disulfide 3-11) [AIC+SRS-(3-(Trimethylsilyl)-L-alanine)-P-(Oic)-I-((N-Me)C)+IPD-NH2]
9,535 nM,B8
10,1100 nM,B9
11,1300 nM,B10
12,490 nM,B11
13,170 nM,B12
14,61 nM,B13
15,55 nM,B14

# Target: T1, Recombinant human MASP1 enzyme …
# Experiment: cell-based or functional assay
row,human MASP1 IC50,Binder
1,12 nM,B1
2,16 nM,B2
3,15 nM,B3
4,14 nM,B4
5,15 nM,B5
6,12 nM,B6
7,15 nM,B7
8,14 nM,AICSRS[3‑(Trimethylsilyl)‑L‑alanine]P[Oic]I[NMeC]IPD-NH2 (disulfide 3-11) [AIC+SRS-(3-(Trimethylsilyl)-L-alanine)-P-(Oic)-I-((N-Me)C)+IPD-NH2]
9,15 nM,B8
10,14 nM,B9
11,14 nM,B10
12,16 nM,B11
13,14 nM,B12
14,14 nM,B13
15,13 nM,B14
